What was measured:
[1] = Cocaine hydrolysis activity in vitro (clearance assay with conditioned medium)
[2] = hBChE in blood by ELISA, mice grafted with mouse skin organoids; format: in vivo
Source text: To efficiently transplant mouse epidermal progenitor cells, a new organotypic culture model with mouse epidermal progenitor cells was developed in vitro by culturing the cells on top of acellularized mouse dermis. Exposure to the air/liquid interface can induce stratification of cultured cells to generate a skin-like organoid in vitro. […] To investigate the potential therapeutic effect of hBChE expression in vivo, we transplanted the organoids to isogenic host animals (CD1 and C57BL/6) (FIGS. 22A and 22B-C). […] Expression of hBChE in grafted animals was stable for more than 10 weeks (FIG. 22H).

[3] = Extinction and cocaine-induced reinstatement of CPP; format: in vivo, mouse; details: grafted after CPP acquisition; priming 15 mg/kg cocaine
Description: Extinction and reinstatement of CPP: Following CPP acquisition, mice underwent extinction, in which the procedure was identical to that in the test day. In each extinction day, mice were allowed to explore the entire chambers for 20 min and time spent in each area was recorded. Extinction was performed until the CPP decreased to a level that was not different from that of the pretest in consecutive two days. On the following day of the last extinction, mice underwent reinstatement procedures, in which mice that were trained for cocaine CPP received an i.p. injection of 15 mg/kg cocaine, and mice that were trained for ethanol CPP received an i.p. injection of 1 g/kg ethanol. Immediate after injection, mice were allowed to explore the entire chambers for 20 min and time spent in each area was recorded.
Specific methods: One group of GhBChE and one group of GWT mice (n=9 in each group) were trained for cocaine CPP 7 days after engraftment (FIG. 18A). Mice underwent pretest on Day 1, four days of cocaine conditioning day 2 to Day 5, and CPP test on Day 6. One group of GhBChE and one group of GWT mice (n=8 in each group) were trained for ethanol CPP 7 days after engraftment (FIG. 18B). Mice underwent pretest on Day 1, four ethanol conditioning day 2 to Day 5, and CPP test on Day 6. […]

[4] = cocaine hydrolysis; cited from earlier work
[5] = tested on: mouse epidermal cells; experiment: Expression and secretion of hBChE by immunoblots and ELISA (mouse epidermal cells); details: engineered mouse epidermal cells
[6] = Stability and tolerance of transplanted skin organoids in immunocompetent hosts; format: in vivo, mouse; details: isogenic hosts CD1 and C57BL/6
Source text: For grafting with skin organoids, CD1 (isogenic mouse keratinocyte transplantation) males or Nude (human keratinocyte transplantation) females with the ages of 6-8 weeks were anesthetized. A silicone chamber bottom with the interior diameter of 0.8 cm and the exterior diameter of 1.5 cm was implanted on its shaved dorsal mid-line skin, which was used to hold the skin graft. A chamber cap was installed to seal the chamber right after a piece of graft was implanted. About one week later, the chamber cap was removed to expose the graft to air. A single dose of 0.2 mg α-CD4 (GK1.5) and 0.2 mg α-CD8 (2.43.1) antibodies was administered intraperitoneally for skin grafting.
Optical imaging was performed in the integrated small animal imaging research resource (iSAIRR) at the University of Chicago. Bioluminescence images were acquired on an IVIS Spectrum (Caliper Life Sciences®, Alameda, CA) after animal was injected with luciferin (100 mg/kg). […]
Grafted cells in immunocompetent hosts readily expressed exogenous genes, such as Luciferase and Histone H2B-RFP (FIG. 1B-D), which were transduced to the cells with lentivirus. […] Importantly, the tissue organoid with expression of exogenous gene, such as Luciferase and H2B-RFP, was stable in vivo for more than 5 months in immunocompetent hosts, as determined by intravital bioluminescence imaging and tissue histology. […]

B1: hBChE: modified human butyrylcholinesterase (E30-6, SEQ ID NO: 41), cocaine hydrolase, expressed from engineered epidermal cells / skin grafts (protein)
chain: MHSKVTIICIRFLFWFLLLCMLIGKSHTEDDIIIATKNGKVRGMNLTVFGGTVTAFLGIPYAQPPLGRLRFKKPQSLTKWSDIWNATKYANSCCQNIDQSFPGFHGSEMWNPNTDLSEDCLYLNVWIPAPKPKNATVLIWIYGGGFQTGTSSLHVYDGKFLARVERVIVVSMNYRVGALGFLALPGNPEAPGNMGLFDQQLALQWVQKNIAAFGGNPKSVTLFGESSGAASVSLHLLSPGSHSLFTRAILQSGSANAPWAVTSLYEARNRTLNLAKLTGCSRENETEIIKCLRNKDPQEILLNEAFVVPYGTALGVNFGPTVDGDFLTDMPDILLELGQFKKTQILVGVNKDEGTWFLVGGAPGFSKDNNSIITRKEFQEGLKIFFPGVSEFGKESILFHYTDWVDDQRPENYREALGDVVGDYNFICPALEFTKKFSEWGNNAFFYYFEHRSSKLPWPEWMGVMHGYEIEFVFGLPLERRDNYTKAEEILSRSIVKRWANFAKYGNPNETQNNSTSWPVFKSTEQKYLTLNTESTRIMTKLRAQQCRFWTSFFPKVLEMTGNIDEAEWEWKAGFHRWNNYMMDWKNQFNDYTSKKESCVGL
modifications: Human mutant BChE
- cocaine hydrolysis activity of conditioned medium [1]: significantly induced degradation of cocaine in vitro
- duration of stable hBChE expression in grafted animals ([2]; hosts with intact immune systems): more than 10 weeks
- level of human BChE in the blood ([2]; mice grafted with hBChE-expressing mouse cells): significantly elevated levels of human BChE in the blood
- cocaine-induced reinstatement of preference [3]: restored in the GWT mice but not in the GhBChE mice
- catalytic efficiency (kcat/KM) relative to wild-type (WT) hBChE [4]: more than 4400 times
- expression and secretion of hBChE [5]: robust expression and secretion of hBChE
- time without significant rejection of skin grafts [6]: at least 5 months

Reference: US20230392126A1, “TISSUE ORGANOIDS” (priority 2016, published 2023)
